# Reference: the nanobody polyreactivity screen of Harvey et al. (2022)
# Assay: yeast display, Sf9 membrane polyspecificity reagent, FACS + sequencing; frameworks hold sequencing errors
# In short: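 A synthetic nanobody library was expressed on Saccharomyces cerevisiae BJ5465 by galactose induction for 36–48 hours. The library was stained for 1 hour at 4 °C with 10% biotinylated, detergent-solubilized Sf9 membrane reagent and enriched with streptavidin microbeads before FACS. Low and high (top ~1%) gates were set on anti-HA fluorescence for expression and streptavidin fluorescence for reagent binding, and each polyreactivity label reflects the gate of origin.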
sequence,measurement,value
QVQLVESGGGLVQAGGSLRLSCAASGSIFGPYAMGWYRQAPGKERELVAAITIGGDNTYYADSVKGRFTISRDNAKNTVYLQMNSLKPEDTAVYYCAAKYYCGKPHYYEYYYWGQGTQVTVSS,polyreactivity (PSR sort gate),low polyreactivity
QVQLVESGGGLVQAGGSLRLSCAASGSIFTDNAMGWYKQAPGKERELVAVISSGGRTYYADSVKGRFTISRDNAKNTVYLQMNSLKPEDTAVYYCKGQKRYPFSGIEDYWGQGTQVNVSS,polyreactivity (PSR sort gate),high polyreactivity
QVQLVESGGGLVQAGGSLRLSCAASGRIFVRYAKGWYRQAPGKERELVAAISRSGGSTYYADSVKGRFTISRDNAKNTVYLQMNSLKPEDTAVYYCNAAYWRRYYQLEDYWGQGTQVTVSS,polyreactivity (PSR sort gate),high polyreactivity
QVQLVESGGGLCQAGGSLRLSCAASGRTFYKNTMGWYRQAPGKERELVAAISIRGGSTYFADTVKGRFTISRDNAKNTFYLQMNSLKPEDTAVYYCNVVYQKAARIVDFDYWGQGTQVTLSS,polyreactivity (PSR sort gate),high polyreactivity
QVQLVESGGGLVQAGGSLRLSCAASGSTFPGYAMGWYRQAPGKERELVAAGGSTYYADSVKGRFTISRDNAKNTVYLEMNCLKPEETAVYYCAATWGSVQKGTYYYWGQGTQVTVSS,polyreactivity (PSR sort gate),low polyreactivity
QVQLVESGGGLVQAGGSLRLSCAASGLTFYYNAMGWYRQAPGKERELVAAISRYGGSTYYADSVKGRFRISRDNAKNTDYLQMNSLKPEDTAVYYCAVAYVYTRKGRVQPVKYDYWGQGTQVTVSS,polyreactivity (PSR sort gate),high polyreactivity
QVQLVESGGGLVQAGGSLRLNCAASGITFSANAMGWYRQATGKERELVASNRSSGGSTYYADSVKGRFTISRDNEKKTVYLQMNSLKPEDTAVYSRNARLGPLYVYRQYDSWGQGTQVTVSS,polyreactivity (PSR sort gate),low polyreactivity
QVQLVETGGGIVQAGGSLRLSSAASGRIFASNAMGWYRQAPGKERELVAAIDQCGGSTYYADSVKGRFTISRDNAKNTVYLQMNSLKPEDTAVYYCAADYITAYPRLYNYWGQGTQVTVSS,polyreactivity (PSR sort gate),low polyreactivity
QVQLVESGGGLVQAGGSLRLSCAASGRIFTKYAMGWYRQAPGKERELVATITRNGGSTYYADSVKGRFTISRDNAKNTVYLQMNSLKPEDTAVYYCAADKRYKLDYWGQGTQVTVSS,polyreactivity (PSR sort gate),high polyreactivity
QVQLVESGGGLVQAGGSLRLSCAASGFTFVYYAMGWYRQAPGKERELVATISGNGGRTYYADSVKGRFTISRDNAKNTVYLQMNSLKPEDTAVYYCAADVVTYLSYTLDYWGQGTQVTVSS,polyreactivity (PSR sort gate),low polyreactivity
QVQLVESGGGLVQAGGSLRLSCASSGRTFTPYAMGWSTQAPGKERELVAAISRRAGTTYYADSVKGRFTISRDKAKNYGFLQMNRLKPEETEVYYCAALTESSSYGYWGQGTQVNVSS,polyreactivity (PSR sort gate),low polyreactivity
QVQLVESGGGLVQAGGSLRLSCAASGFTFYTYTMGWYRQAPGKERELVAVITSRGTRTYYADSVKGRFTISRDNAKNTVYLQMNSLKPEDTAVYYCNKGAGWSFGYWGQGTQVTVSS,polyreactivity (PSR sort gate),high polyreactivity
QVQLVESGGGLVQAGGSLRLSCAASGRIFAYYAMGWYRQAPGKEREFLATITGRGGSTSYADSVKGRFTISRDNAKNTVYLQMNSLKPEDTAVYYCAKRVVVWYFGTGDYWVQGTQVTVSS,polyreactivity (PSR sort gate),low polyreactivity
QVQLVESGGGLVQAGGSLRLSCAASGRIFHFYAMGWYRQAPGKERELVAAITSRTGNTYYADSVKGRFTISRDNAKNTVYLQMNSLKPEDTAVYYCAAKLVNALLHYRNWNHINYWGQGTQVTVSS,polyreactivity (PSR sort gate),low polyreactivity
QVQLVESGGGLVQAGGSLRLSCAASGSIFDAYAMGWYRQAPGKERELVAGITSGGSTNYADSVKGRFTISRDNAKNSVYLQMNSLKPEDTAVYYCAAQCDYANIYLIFNYWGQGTQVTVSS,polyreactivity (PSR sort gate),low polyreactivity
QVQLVESGGGLVQAGGSLRLTCAASGRTFAGNAMGWYRQAPGKERELVAAIRRTGGRTYYADSVKGRFTISRDNAKNSVYLQRNSLKPEDTAVYYCYAVNKPYTREYGYDYWGKGTQVTVSS,polyreactivity (PSR sort gate),high polyreactivity
QVQLVESGGGLVQEGGSLRLSCAASGGIFSAYAMGWYRQAPGKERELVAAISRTGGSTYYADSVKGRFTISRDNAKITVYLQMTSLKPEDTAVYYCNADYRRYPEFDYWGQGTQVTVSS,polyreactivity (PSR sort gate),high polyreactivity
QVQLVESGGGLVHAGGSLRLSCAASGFTFAGYAMGWYRQAPGKERELVAGIRSSGARTYYADSVKGRFTISRDNAKNTVYLQMNSLKPDDTAVYYCAKTDGFYGGYGYWGQCTQVTVSS,polyreactivity (PSR sort gate),low polyreactivity
QVQLVESGGGLVQAGGSLRLSCAASGIIFYRYAMGCYRQAPGKEREFVAAISWSGGSTTYADSVKGRFTISRDNAKNTVYLQMNSLKPEDTAVYYCNADRKYWSLWGPAYDYWGQGTQVTVSS,polyreactivity (PSR sort gate),high polyreactivity
QVQLVESGGGLVQAGGSLRLSCAASGSTFDRYAMGWYRQAPGKERELVASISRSGGNTYYADSVKGRFTISRDNAKNTVYVPMNSLKPDDTAGYYSNKPIGRYSRNRYGYWGQATQVTVSS,polyreactivity (PSR sort gate),high polyreactivity
QVQLVESGGGLVQTGGSLRLSCAASGRIFRSYAMGWNRQAPGKERELVAAISGSGGSTYYADSVKGRFTISRDNAKNTVSLQMNSLKPEDTAVYYCTAGKVHPFSTRFYYWGQGTQVTVSS,polyreactivity (PSR sort gate),low polyreactivity
QVQLVESGGGLVQAGGSLRLSCAASGIISYLYAMGWYRQAPGKERELVAVIRTSDAITYYADSVKGRFTISRDNAKNTVYLQMISLKPEDTAVYYCAAEDVYEYDYWGQGTQVTVSS,polyreactivity (PSR sort gate),high polyreactivity
QVQLQESGGGQVQAGGSLRLSCAASGYISTHYFMGWYRQAPGKDREFVAGISNGSITNYADSVKGRFTISRDNARNTVYLQMNSLKPEDTAVYYGAAYEWTYVRFGYWGQGTQVTVSG,polyreactivity (PSR sort gate),high polyreactivity
QVQLVESGGGLVQAGGSLRLSCAASGRISGGYDMGWYRQAPGKERELVAAITNTGGITYYADSVKGRFTISRDNAKNTVYLQMNSLKPEDTAVYYCNAEYEISFYVLFDYWGQGTQVTVSS,polyreactivity (PSR sort gate),low polyreactivity
QVQLVESGGGLVQAGGSLRLSCAASGSIFSRYAMGWYRQAPGKERELVAAITSSGTSTYYADSVKGRFTISRDNAKNTVYLQMNSLKPEDTAVYYCAAAFRQRTSRFDYWGQGSQVTVSS,polyreactivity (PSR sort gate),high polyreactivity
QVQLVESGGGLVQAGGSLRLSCAASGRTFTRYSMGWYRQAPGKERELVATINSSGDRTYYADSVKGRFTISRDNAKNTVYLQMNSLKPEDTAVYYCAKRWSPYLYGYWGKGTQVTVSS,polyreactivity (PSR sort gate),high polyreactivity
QVQLVESGGGLVQAGGSLRLSCAASGRISIKNAMGWYRQAPGKERELVAAIRWSADSTYYADSVKGRFTISRDNAKNTVYLQMNSLIPEDTAVYYCAATGRLRYYWGQGTQVTVSS,polyreactivity (PSR sort gate),high polyreactivity
QVQLVESGGGLVQPGGSLRLSCAASGRIFGWYARGWYRPAPGKERELVAAISRGGTRTNYADSVKGRFTISRDNAKNTVYLQMNSLKPEETAVYYCAARRYSRDFDYWGQGTQVTVSS,polyreactivity (PSR sort gate),high polyreactivity
QVQLVESGGGLVQAGGSLRLSCAASGSIFVGYVMGWYRQAPGKERELVAAISRSGGRTYYADSVKGRFTISRDNAKNTVYLQMNSLKPEDTAVYYCNADVIDLDYDYWGQGTQVTVSS,polyreactivity (PSR sort gate),low polyreactivity
EVQLVESRGGLVQAGGSLRLSCAASGSILVGYAMGWYRQAPGKERELVAAISFSGGSTYYADSVKGRFTISRDNAKNTVFLQLNSLKPEDTAVYYCASKRRVWIFYSSSDDYWGQGTQVTVSS,polyreactivity (PSR sort gate),low polyreactivity
QVQLVESGGGLVQAGGSLRLSCAASRRIFDHNAMGWYRQAPGKERELVAAISSSGGRTYYADSVKGRFTISRDNAKNTVYLQMNSLKPEDTAVYYCNKVRTVTTYEYWGQGTQVTVSS,polyreactivity (PSR sort gate),high polyreactivity
QVQLVESGGGLVQAGGSLRLSCAASGSILYANAMGWYRQAPGKERELVAAISARGTSTYYADSVKGRFTISRDNAKNTVYLQMNSLKPEDTAVYYCATGRKNAAQRWGYYYWGQGTQVTVSS,polyreactivity (PSR sort gate),high polyreactivity
QVQLVESGGGLVQAGGSLRLSCAASGRIFYIYAMGWYRQAPGKERELVATISVSGGRTYYADSVKGRFTISRDNAKNTVYLHMNSLKPEDTAVYYCAKEGRFNIHKWYDYWGQGTQVTVSS,polyreactivity (PSR sort gate),low polyreactivity
QVQLVESGGGLVQAGGSLRLSCAASGSTLAQYAMGWYRQAPGKETELVADISWSGGSTYYADSVKGRFTISRDNAKNTVYLQMNSLKPDDTAVYYCNAYAFDSVREEDYWGQGTQGTVSS,polyreactivity (PSR sort gate),low polyreactivity
QVQLVESGGGLVQAGGSLRLSCAASGSTFDINVMGWYRQAPGKERELVAAITWSGGRTYYADSVKGRFTISRDNAKNTVYLQMNSLKPEDTAVYYCAARVGRGVYRYVPREFDYWGQGTQVTVSS,polyreactivity (PSR sort gate),high polyreactivity
QVQLVESGGGLVQAGGSLRLSCAASGRIFGRYAMGWYIQAPGKERELVAAISRRGVSTTYADSVKGRFTISRDNAKNTVYLQMNSLKPEDTAVYYCAAVRYGYSSTRDYLGQGTQVTVSS,polyreactivity (PSR sort gate),high polyreactivity
QVQLVESGGGLVQAGGSLRLSCAASGSIFGDNAMGWYRKAPGKERELVAGISSSGGRTYYADSVKGRFTISRDNAKNTVYLQMNSLKPEVTAVYYCAKEPGWGRRSTTAYDYCGQGTQVTVSS,polyreactivity (PSR sort gate),low polyreactivity
QVQLHESGGGLEQEGGSLRLTCEASGNISPPADMGWYRQAPRKERELVASIGTGGTTNYADIVKARFTISRDNAKNTVYLQMNSLKPDDTSVYYWAAVRYEYNPYDYWGQGTQVTVSS,polyreactivity (PSR sort gate),low polyreactivity
QVHLVESGGGLVQAGGSLRLSCAASGSTLGRYAMGWYRQAPGKERELVAAISWRGGSTYYADSVKGRFTISRDNAKNTDYLQMHSLKPEDTAVYYCADTYRFSEYYYWGQGTQVTVSS,polyreactivity (PSR sort gate),high polyreactivity
QVQLVESGGGLVQAGGSLRLSCAASGRIFVYYAMGGYRQAPGKERELVATISTGGSTYYADSVKGRFTISRDNAKNTVYLQMNSLKPEDTAVYYCASDNVNLYLAYYYKGDYWGQGTQVTVSS,polyreactivity (PSR sort gate),low polyreactivity
QVQLVESGGGLVQAGGSLRLSCAASGLIFVWYDMGWYRQAPGKERELVATISSDGITNYADSVKGLFTISRDNAKNTVYLQMNSLKPEDTAVSYCNAGPDDYVGYWGKYDYWGQGTQVTVSS,polyreactivity (PSR sort gate),low polyreactivity
QVQLVESGGGLVQAGGSLRLSCADSGSTFDDNAMGWYRQAPGKDRELVASITYRGGSTYYADSVKGRFTISRDNAKNTVYLQMNSLKPEDTAVYYCAKGHYFKYDYWGQGTQVTVSS,polyreactivity (PSR sort gate),low polyreactivity
QVQHVESGGGLVQAGGSLRLSCAASGFIFWDYAMGWYRQAPGKERELVAAISDSGGDTYYADSVKGRFTISRDNAKNTVYLQMNSLIPEDTAVYYCAAETYCGGYPVTYDYWGQGTQVTVSS,polyreactivity (PSR sort gate),low polyreactivity
